In publication PMC6803640, “Oligomeric state, hydrodynamic properties and target recognition of human Calcium and Integrin Binding protein 2 (CIB2)” (Scientific Reports, 2019):
Values joined by “and” are separate entries in the source; they are usually repeats but may differ in a detail not shown here. Equal values may be shown once.

Legend:
[1] = Native ESI-MS oligomeric state of CIB2; type: physicochemical; details: 14 µM CIB2 in 200 mM ammonium acetate, pH 6.8; collision energy 60 V
Procedure: For native ESI-MS analyses (High-Mass Q-TOF II mass spectrometer, Waters/MSVision), CIB2 was prepared in 200 mM ammonium acetate, pH 6.8.

Dynamic light scattering = type: physicochemical; details: 37 °C, fractions eluted from SEC (CIB2 A2 band), mean ± SEM; n = 15 (CIB2), 18 (Rec), 30 (CaM); 1.8 µM CIB2, 11 µM Rec, 7.4 µM CaM
Procedure: DLS measurements were performed using Zetasizer Nano-S (Malvern Instruments) at 37 °C by setting the same parameters for hydrodynamic diameter estimation as in ref.[26]. The estimation was based on 15–30 measurements, each consisting of at least 13 repetitions; data in Table 1 are reported as mean ± standard error of mean (SEM). DLS samples for each protein are the same collected in the Analytical Size Exclusion Chromatography.
His-tagged proteins, and then blocked via amine coupling as explained above. Preparation of the […]
approximately 2250 RU of CIB2 immobilized. In binding experiments, peptide concentration was varied in the 230 nM- 30 μM range for both α7B_M, and α7B_C, and experiments were repeated 4 times, both with the HBS buffer described above (containing 1 mM MgCl2) and with further addition of 2 mM CaCl2. Flow rate was set to 20 μl min−1 in all binding experiments, and the dissociation […]
Figure S1: DLS measurements of the SEC collected peaks. CIB2 band A2 (A), Rec (B) and CaM (C). Each data set consisted of 15-30 measurements (grey lines), with 13-15 repetitions each. Colored lines are referred to the average distribution. Temperature was set to 37°C and samples were equilibrated for 2 min before measurements.
Figure S2: Time-resolved proteolysis experiments. […]

[2] = reducing conditions, different cation-bound states; cited from earlier work
Text: Moreover, DLS experiments performed with the samples collected immediately after elution from the SEC column measured a relatively high hydrodynamic diameter (d^Mg = 8.43 nm and d^Ca = 8.18 nm), which was also interpreted as an evidence of a dimeric protein[8]. […] According to a calibration curve obtained with globular proteins of known MW, these bands would correspond to an apparent MW (MW^SEC) of 35.9 kDa in the absence and of 36.7 kDa in the presence of the cross-linker, thus very similar to those obtained in our previo ...

B1: CIB2: Recombinant human CIB2, Ca^2+ and Mg^2+-binding protein (protein)
chain: MGNKQTIFTEEQLDNYQDCTFFNKKDILKLHSRFYELAPNLVPMDYRKSPIVHVPMSLIIQMPELRENPFKERIVAAFSEDGEGNLTFNDFVDMFSVLCESAPRELKANYAFKIYDFNTDNFICKEDLELTLARLTKSELDEEEVVLVCDKVIEEADLDGDGKLGFADFEDMIAKAPDFLSTFHIRI
modifications: left off: His tag, end not stated, cleaved
oligomeric state, native MS [1]: no signals of CIB2 dimers, nor higher order oligomers were detected | DLS Ø hydrodynamic diameter (Dynamic light scattering): 5.4 ± 0.2 nm and 5.4 ± 0.2 [15] nm | apparent MW (MW^SEC), previous work [2]: 37–39 kDa
